Results taken from the RNAGym collection of RNA variant scans (doi:10.1073/pnas.2313332121).
Fewer inactive variants are shown than the library holds.

B1: TPR 5TU (parent)
chain: GGAUCUUCUCGAUCUAACAAAAAAGACAAAUCUGCCACAAAGCUUGAGAGCAUCUUCGGAUGCAGAGGCGGCAGCCUUCGGUGGCGCGAUAGCGCCAACGUUCUCAACUAUGACACGCAAAACGCGUGCUCCGUUGAAUGGAGUUUAUCAUG

Variants of: B1
Experiment: polymerase ribozyme fitness, log enrichment relative to wild type (log ratio); higher = more active; in vitro selection for triplet polymerase activity
Procedure, shortened: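 A heterodimeric triplet polymerase ribozyme had each of its subunits mutagenized by PCR into a library, which was transcribed. One round of in vitro selection, done in triplicate, annealed each library with a biotinylated primer, its partner subunit and triplets, then incubated it frozen at −7 °C before gel excision of extended constructs, streptavidin-bead capture and RT-PCR. Fitness is the logarithm of genotype enrichment relative to wild-type enrichment, based on Illumina sequencing of inputs and outputs and inverse-variance-weighted replicate averages. A base-2 logarithm is used, and genotypes were kept only with ≥10 input reads and ≥1 read per output.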

| Variant | polymerase ribozyme fitness (log ratio) |
| --- | --- |
| C76G G80U U82A G86U U104C G141C | ≤ -4.2 |
| C54U G126U | 0.161 |
| C57U A64U G92C C105U | ≤ -4.2 |
| C54U A97U A107C | ≤ -4.2 |
| C116G G143A | -2.16 |
| C14A G50A C87A A106U C108G A150C | ≤ -4.2 |
| A21U G50A C63U C75U A97U | -1.25 |
| C57U C87U C93A A107C | ≤ -4.2 |
| C10G A91C C95U C103G C116G | ≤ -4.2 |
| C36U A49U C79A A106U A147C | ≤ -4.2 |
| C14A A49C C69A | ≤ -4.2 |
| G46C U55G U144A | -1.97 |
| A41C U55G G81A C85U | -0.432 |
| C5U G62C G88C | ≤ -4.2 |
| A20U U55G C96U U134G U144G | -3.67 |
| C5A G11C G50U G58C C85A | -2.8 |
| G42A G46U U55G C72G | ≤ -4.2 |
| U13A A22C G50A G84A A121U | -2.93 |
| U4A A21G G68A A73G G86U A142G | ≤ -4.2 |
| C5A A22U A24U C27G A39C C57U A60U C85G | ≤ -4.2 |
| G11U G83A C96U | -0.589 |
| G80C C87G C103G G143C | ≤ -4.2 |
| A30U G42U G65A G86U A121U | ≤ -4.2 |
| C57G A73G U82A C96G U101C C116A | -3.9 |

| Variant | polymerase ribozyme fitness (log ratio) |
| --- | --- |
| A64G G86A | -4.08 |
| U6G A26U A52G G141U U145G | ≤ -4.2 |
| A20U A30U A39G C75A | ≤ -4.2 |
| C10U A17G A23C A24C A26G U31G A39U U44A C54G C57G C79A C96U G124A | ≤ -4.2 |
| G34A U82G C96A C99G | ≤ -4.2 |
| C14G C54U G68C C87U | ≤ -4.2 |
| A21U A26C A52C C54U G62A G68A G83C U139G | ≤ -4.2 |
| U15A C75G C95U A142C | ≤ -4.2 |
| G34U C96G U144C | ≤ -4.2 |
| C5G A29U U55G U78A G92C C118U U145A | ≤ -4.2 |
| U53G U55G C75U C76U G83A U135A | ≤ -4.2 |
| A22U A49G A60G G83U G84U | -3.24 |
| C5A G42A A97G U101G C103G A110G G140U | -3.6 |
| A20U A24U G83C C93G G143A | ≤ -4.2 |
| A30G A49G | ≤ -4.2 |
| U55A A60C C85U A89G | -4.15 |
| C32U G59U C85U A115G | -3.62 |
| A47C C85G C96A A98G | ≤ -4.2 |
| A73U C116G | -2.81 |
| U6G G92U C105A C114G A142U | ≤ -4.2 |
| G59U C114U | -1.62 |
| C8G G81C G86A C132A | ≤ -4.2 |
| A37U C95U A122G | -1.77 |
| U104G C118G | -1.89 |

| Variant | polymerase ribozyme fitness (log ratio) |
| --- | --- |
| C5U A21U G84A C131A | -2.96 |
| A16G A17C A41U U55A C76U C85A | ≤ -4.2 |
| G50A C99A U145A | -3.7 |
| G46A G86A C87G U104G C116U C149U | ≤ -4.2 |
| U6C A26U C35A A73G C75U C93A C116A A138C | ≤ -4.2 |
| G42U G65C G70A C76A G86U U139G A142U | ≤ -4.2 |
| A52G G117A | -0.121 |
| C76U C85G A121U U148C | -2.83 |
| A47C G117A | 0.357 |
| A16U C18G A21U A98G C105U | ≤ -4.2 |
| C96U A119C | -1.05 |
| A16G C93A | -2.12 |
| A12G C54A U55G G58C G92A A97U C125G G128U U135C A138G U139A U145G | ≤ -4.2 |
| U4A A22C C96G A119U C149U | -3.08 |
| U9A G59A C87A | ≤ -4.2 |
| C54A A91U C108U G124U A138C G141A | ≤ -4.2 |
| U31C G34A U56G A60G A73G G84A A89U | ≤ -4.2 |
| A3C G11C C76U C93A | -3.68 |
| A20C C38U C95U A122C U134C | -1.35 |
| A40C U55A | 0.494 |
| U61A G86A | -2.67 |
| A49C G50U A64C A73U C87A A115G C118G | ≤ -4.2 |
| A23C A40U G48U G94C C99G U144A | ≤ -4.2 |
| U6A A21U U55A | -0.47 |

| Variant | polymerase ribozyme fitness (log ratio) |
| --- | --- |
| A41U G58A G81C | -0.606 |
| C18G G46U A73U C85U G92U C125A | ≤ -4.2 |
| U7G C103A | -3.85 |
| C36A C79U G88C A113G A150U | ≤ -4.2 |
| A20U G84U A98G | -4.1 |
| U4C G58C | 0.358 |
| U15C C38U G86A C87U C99U | -3.87 |
| A16C | -1.01 |
| A52G G58U G84U C96A C99U | -4.02 |
| C57U U111G | -4.17 |
| G50U G94U C103U | -2.08 |
| A91G C95U | -2.75 |
| C96U A150C | -3.31 |
| A17G A60G U61A A110G C118U C129A | ≤ -4.2 |
| U45G G50C C57A G59A C75U G94C A106U A107U | ≤ -4.2 |
| A3C A37U A40C U44A C132A | ≤ -4.2 |
| G50U G136U C149G | -4.16 |
| A40U U45G | -0.54 |
| G42C A60G C79A C87U C105G C118A G124C | ≤ -4.2 |
| A19U A21C C96U C129A | -4.13 |
| A41U U56A | -0.813 |
| U7A G42A C85U A113U C116U C125G | ≤ -4.2 |
| U4G G50A C96G U102G C123A | ≤ -4.2 |
| C43G C85U C99U A120C G128U A147U | ≤ -4.2 |

| Variant | polymerase ribozyme fitness (log ratio) |
| --- | --- |
| U6G A12U A22C G59C U61G A73U | ≤ -4.2 |
| A30U U53G G84A | -4.15 |
| C32G G50A C63U A91G C125G A147G | ≤ -4.2 |
| A97G C103A | -0.693 |
| C85A U135G | ≤ -4.2 |
| G50A G94A C116G | -1.53 |
| C18U U55A A73G G86A G94C | ≤ -4.2 |
| C14A A26U U77G G84U A115C A147G U148G | ≤ -4.2 |
| U4G C18U C51U G80C A91G C95G C105U U109A A119U | ≤ -4.2 |
| A40U A41U C57U C108U G143U | ≤ -4.2 |
| C36A C75A C79U A115U A120C C125U | ≤ -4.2 |
| U6G G94A A115C | -1.5 |
| G83C G86A C95A A120C | ≤ -4.2 |
| C85U U135A | -0.52 |
| U4G C5U A24U A26U G65U G88U G94U A98G G124U G143U | ≤ -4.2 |
| C8A C76A G88U G94U C132G U139C | ≤ -4.2 |
| U4G C87A A98G U130G | ≤ -4.2 |
| C54U C85U G136U | -2.08 |
| C8G C96A | -4.07 |
| A19U A37U G67C C85A U109G U148C | ≤ -4.2 |
| G42C C87U A113C C118G G141C | ≤ -4.2 |
| G50A C118A A119U G143A | -2.71 |
| A30G C38U C54G C72G C75G C96G A147U | ≤ -4.2 |
| A39U A89G | -2.99 |

| Variant | polymerase ribozyme fitness (log ratio) |
| --- | --- |
| A20U A52G U53A U55A C69A A110G U146G | ≤ -4.2 |
| C43A C63U C69A G94A C123A U134A G141C | ≤ -4.2 |
| U15G A17U G25A U61G C93G G140U | ≤ -4.2 |
| A52U C85U | -1.59 |
| U53A U55A A121U | -2.74 |
| A22C A28G G48C G62A A64C C85U | ≤ -4.2 |
| C43G A64C A73C C87A C105G | ≤ -4.2 |
| C5A G86U G141A | -1.49 |
| A16U G25U C27U A28U C43U G94C C99G C125A U148C U151G | ≤ -4.2 |
| G58A G84A A142U G152A | -2.68 |
| C43G C54A C93U A107G | ≤ -4.2 |
| C93A G100U U102G G117U A138C | ≤ -4.2 |
| U4A C8A C43A A64U C93A U146C | ≤ -4.2 |
| C18G A19C U33G C36U G46A C87U A110G | ≤ -4.2 |
| G11C A19C | -1.41 |
| G11C A26U C69U | ≤ -4.2 |
| G70U | -1.81 |
| C114G G133C | -3.93 |
| U148A | -2.72 |
| C85G C87U | -3.28 |
| U7A G25U A39C A49U C54G C95U U111G | ≤ -4.2 |
| A41C A66U U135A | ≤ -4.2 |
| U56A C96U U148A | -3.44 |
| U55G A98G U139G | -0.271 |

| Variant | polymerase ribozyme fitness (log ratio) |
| --- | --- |
| A16C A21U C76U C105U | -1.77 |
| A40C C51U U55G G74C A89C G92A | ≤ -4.2 |
| G11C C32G C54U C57U C79G C87G A110G | ≤ -4.2 |
| C35U C57G G65U U144C | -4.2 |
| C57A C69A C72U C85A | -3.55 |
| C96U C116U | -0.186 |
| G92A C95A | -3.27 |
| A60U G86U | -4.01 |
| C54A C123G | -1.63 |
| A17G C57U G94C U139C U144A | ≤ -4.2 |
| A24C C96G C118A | -4.19 |
| A19U U53G U55A C85G | ≤ -4.2 |
| C93A C99A | ≤ -4.2 |
| A23G U134A | ≤ -4.2 |
| G25A C75A A91U | ≤ -4.2 |
| G92A G141U | -1.8 |
| A20C C57G C85A C118U G143C | -3.96 |
| U7A A29G C85A C114A A121G U134C | ≤ -4.2 |
| A12G U144A | 1.44 |
| A60U G141C | -1.16 |
| U53A C79A | ≤ -4.2 |
| A16U G42A G59A G71A A89G | ≤ -4.2 |
| A21G U31G C38U A73C C87A C96U | ≤ -4.2 |
